Test results reported in article PMC8867573.
Numbering of substitutions follows the chain as printed. Names and notes keep the numbering of the source.

B1: ScSLAC (small laccase, SLAC) (Streptomyces coelicolor A3(2); M298L) (protein)
chain: AKGITARTAPAGGEVRHLKMYAEKLADGQMGYGFEKGKASVPGPLIEVNEGDTLHIEFTNTMDVRASLHVHGLDYEISSDGTAMNKSDVEPGGTRTYTWRTHKPGRRDDGTWRPGSAGYWHYHDHVVGTEHGTGGIRNGLYGPVIVRRKGDVLPDATHTIVFNDMTINNRKPHTGPDFEATVGDRVEIVMITHGEYYHTFHMHGHRWADNRTGILTGPDDPSRVIDNKITGPADSFGFQIIAGEGVGAGAWMYHCHVQSHSDMGLVGLFLVKKPDGTIPGYEPHEHGGATAKSGESGEPTGGAAAHEHEH
B2: ScSLAC (small laccase, SLAC) (Streptomyces coelicolor A3(2)) (protein)
chain: B1 chain with L265M
B3: ScSLAC (small laccase, SLAC) (Streptomyces coelicolor A3(2); M198F/M298F) (protein)
chain: B1 chain with M165F, L265F
B4: ScSLAC (small laccase, SLAC) (Streptomyces coelicolor A3(2); M298F) (protein)
chain: B1 chain with L265F

What follows are proteins tested on CCn1c(=NN=c2sc3cc(S(=O)(=O)O)ccc3n2CC)sc2cc(S(=O)(=O)O)ccc21 (assay: purified protein). Details: pH 5.0, 42 °C, 0.1-25 mM substrate.

Row | Protein | Km [µM] | kcat [s⁻¹]
1 | B1 | 5000 ± 220 | 9.3
2 | B2 | 7300 ± 260 | 38.6
3 | B3 | 1100 ± 40 | 3.9
4 | B4 | 4100 ± 240 | 3.7

What follows are proteins tested on COc1cccc(OC)c1O (assay: purified protein). Details: pH 8.0, 42 °C, 0.25-15 mM substrate.
Assay type: biochemical, Streptomyces coelicolor

Row | Protein | Km [µM] | kcat [s⁻¹] | kcat/Km
5 | B1 | 1300 ± 90 | 1.5 | kcat/Km = 1.2 × 10^3 s^–1 M^–1
6 | B3 | 1100 ± 80 | 0.8 | kcat/Km = 0.7 × 10^3 s^–1 M^–1
7 | B4 | 1200 ± 190 | 0.7 | kcat/Km = 0.6 × 10^3 s^–1 M^–1

What follows are proteins tested on COc1cc(-c2cc(OC)c(O)c(OC)c2)cc(OC)c1O (assay: purified protein). Details: pH 8.5, 42 °C, 0.025-2 mM substrate.
Assay type: biochemical, Streptomyces coelicolor

Row | Protein | Km [µM] | kcat | kcat/Km
8 | B2 | 300 ± 50 | kcat = 11.3 s^–1 | kcat/Km = 3.8 × 10^4 s^–1 M^–1
9 | B3 | 100 ± 20 | 5.6 s⁻¹ | kcat/Km = 5.6 × 10^4 s^–1 M^–1
10 | B4 | 300 ± 50 | 5.4 s⁻¹ | kcat/Km = 1.8 × 10^4 s^–1 M^–1
